Test [1] concerns the target T1, selinexor-conjugated XPO1 (human, UniProt O14980 1-1071, Cys528 covalently conjugated to selinexor (KPT-330)). The test is described as follows: cryo-EM structure.
The next test concerns the target KPT-185-conjugated XPO1 (human, UniProt O14980 1-1071, Cys528 covalently conjugated to KPT-185). The experiment in a line: cryo-EM structure.
A further test deals with KPT-127-conjugated XPO1 (human, UniProt O14980 1-1071, Cys528 covalently conjugated to KPT-127). The experiment in a line: cryo-EM structure.
Test [2] deals with KPT-UTSW1-conjugated XPO1 (human, UniProt O14980 1-1071). The experiment in a line: cryo-EM structure.
Test [3] addresses exportin 1 (XPO1), unliganded (human, UniProt O14980 1-1071). The test is described as follows: ITC.
The target of test [4] is T1, selinexor-conjugated XPO1. The experiment in a line: ITC.

T1 sequence (O14980 whole entry): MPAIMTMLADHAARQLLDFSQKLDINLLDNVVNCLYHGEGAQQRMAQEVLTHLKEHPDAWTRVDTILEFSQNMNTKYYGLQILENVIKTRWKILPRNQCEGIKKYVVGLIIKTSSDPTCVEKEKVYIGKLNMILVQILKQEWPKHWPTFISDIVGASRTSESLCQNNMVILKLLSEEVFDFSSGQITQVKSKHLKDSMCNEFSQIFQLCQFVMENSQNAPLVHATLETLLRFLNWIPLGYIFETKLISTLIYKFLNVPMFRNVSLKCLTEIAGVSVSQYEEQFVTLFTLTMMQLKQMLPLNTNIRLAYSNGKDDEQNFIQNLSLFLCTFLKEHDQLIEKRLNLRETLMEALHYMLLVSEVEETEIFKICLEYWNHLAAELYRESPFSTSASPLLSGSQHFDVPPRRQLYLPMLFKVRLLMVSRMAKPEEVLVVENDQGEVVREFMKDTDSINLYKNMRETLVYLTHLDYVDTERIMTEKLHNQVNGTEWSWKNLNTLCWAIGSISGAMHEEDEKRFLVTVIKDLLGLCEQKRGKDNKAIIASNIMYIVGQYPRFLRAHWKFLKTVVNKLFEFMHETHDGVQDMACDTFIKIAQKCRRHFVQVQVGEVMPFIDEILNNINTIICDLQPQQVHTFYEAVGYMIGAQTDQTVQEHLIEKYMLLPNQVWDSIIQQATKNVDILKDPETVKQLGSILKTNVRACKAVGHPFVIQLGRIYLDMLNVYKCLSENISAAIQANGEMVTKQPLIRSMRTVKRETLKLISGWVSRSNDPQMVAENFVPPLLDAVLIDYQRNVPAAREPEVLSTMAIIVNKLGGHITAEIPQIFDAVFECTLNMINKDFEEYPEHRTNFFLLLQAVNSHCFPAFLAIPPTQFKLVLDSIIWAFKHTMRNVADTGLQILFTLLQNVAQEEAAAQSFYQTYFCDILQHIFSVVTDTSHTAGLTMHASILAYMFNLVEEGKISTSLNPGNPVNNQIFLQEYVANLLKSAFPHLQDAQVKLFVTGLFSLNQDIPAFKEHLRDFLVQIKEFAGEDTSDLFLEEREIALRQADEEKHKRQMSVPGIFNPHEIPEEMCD
Chain of exportin 1 (XPO1), unliganded (O14980 whole entry): as above
Chain of KPT-127-conjugated XPO1 (O14980 whole entry): as above
Chain of KPT-UTSW1-conjugated XPO1 (O14980 whole entry): as above
Chain of KPT-185-conjugated XPO1 (O14980 whole entry): as above

B1: ASB8^ΔN16 (domain or fragment)
chain: SLSERLIRTIAAIRSFPHDNVEDLIRGGADVNCTHGTLKPLHCACMVSDADCVELLLEKGAEVNALDGYNRTALHYAAEKDEACVEVLLEYGANPNALDGNRDTPLHWAAFKNNAECVRALLESGASVNALDYNNDTPLSWAAMKGNLESVSILLDYGAEVRVINLIGQTPISRLVALLVRGLGTEKEDSCFELLHRAVGHFELRKNGTMPREVARDPQLCEKLTVLCSAPGTLKTLARYAVRRSLGLQYLPDAVKGLPLPASLKEYLLLLE
B1: the binding result (in test [1]; with KPT-185-conjugated XPO1; with KPT-127-conjugated XPO1; in test [2]) was “binds” in each case.

B2: ASB8^ΔN16•ELOB/C (complex)
chain 1: SLSERLIRTIAAIRSFPHDNVEDLIRGGADVNCTHGTLKPLHCACMVSDADCVELLLEKGAEVNALDGYNRTALHYAAEKDEACVEVLLEYGANPNALDGNRDTPLHWAAFKNNAECVRALLESGASVNALDYNNDTPLSWAAMKGNLESVSILLDYGAEVRVINLIGQTPISRLVALLVRGLGTEKEDSCFELLHRAVGHFELRKNGTMPREVARDPQLCEKLTVLCSAPGTLKTLARYAVRRSLGLQYLPDAVKGLPLPASLKEYLLLLE
chain 2: […]
chain 3: […]
B2: the Kd in test [3] was 11000 nM; in test [4] it was 29 nM.

B3: ASB8^ΔN16/R197A•ELOB/C (complex)
chain 1: SLSERLIRTIAAIRSFPHDNVEDLIRGGADVNCTHGTLKPLHCACMVSDADCVELLLEKGAEVNALDGYNRTALHYAAEKDEACVEVLLEYGANPNALDGNRDTPLHWAAFKNNAECVRALLESGASVNALDYNNDTPLSWAAMKGNLESVSILLDYGAEVRVINLIGQTPISRLVALLVAGLGTEKEDSCFELLHRAVGHFELRKNGTMPREVARDPQLCEKLTVLCSAPGTLKTLARYAVRRSLGLQYLPDAVKGLPLPASLKEYLLLLE
chain 2: […]
chain 3: […]
Regarding B3, the affinity in test [4], expressed as Kd, was 58 nM.

B4: ASB8^ΔN16/R197A (domain or fragment)
chain: SLSERLIRTIAAIRSFPHDNVEDLIRGGADVNCTHGTLKPLHCACMVSDADCVELLLEKGAEVNALDGYNRTALHYAAEKDEACVEVLLEYGANPNALDGNRDTPLHWAAFKNNAECVRALLESGASVNALDYNNDTPLSWAAMKGNLESVSILLDYGAEVRVINLIGQTPISRLVALLVAGLGTEKEDSCFELLHRAVGHFELRKNGTMPREVARDPQLCEKLTVLCSAPGTLKTLARYAVRRSLGLQYLPDAVKGLPLPASLKEYLLLLE
As for B4, the binding result in test [1] is “binds”.

These data come from doi:10.1101/2024.10.07.617049 (bioRxiv, 2024).
